Measurements: PMC6039445 (2018)

Legend:
Assay in all cases: BLI
[1] = biological target: A/Panama/2007/1999 H3N2 HA, soluble trimeric (influenza A virus A/Panama/2007/1999 …)
[2] = biological target: HA of A/Brisbane/10/2007 (H3N2) virus (influenza A virus A/Brisbane/10/2007 …)
[3] = biological target: A/Minnesota/11/2010 H3N2v HA, soluble, biotinylated (wild type) (influenza A virus A/Minnesota/11/2010 …)

| Binder | Kd [1] [nM] | Kd [2] [nM] | Kd [3] [nM] |
| --- | --- | --- | --- |
| H3v-47 Fab (Fab, V domains shown) VH: QVQLVQSGAEVKKPGSSVRVSCKASGDTFSSYSITWVRQAPGHGLQWMGGIFPIFGSTNYAQKFDDRLTITTDDSSRTVYMELTSLRLEDTAVYYCARGASKVEPAAPAYSDAFDMWGQGTLVTVSS VL: DIVMTQSPGTLSLSPGERATLSCRTSQGVSSSYLAWYQQKPGQAPRLLISGSSSRATGIPDRFSGSGSGRDFTLTISRLEPEDSAVYYCQQYATSPTFGQGTRVEIK | < 5 | < 5 |  |
| H3v-47 IgG (antibody, V domains shown) VH: QVQLVQSGAEVKKPGSSVRVSCKASGDTFSSYSITWVRQAPGHGLQWMGGIFPIFGSTNYAQKFDDRLTITTDDSSRTVYMELTSLRLEDTAVYYCARGASKVEPAAPAYSDAFDMWGQGTLVTVSS VL: DIVMTQSPGTLSLSPGERATLSCRTSQGVSSSYLAWYQQKPGQAPRLLISGSSSRATGIPDRFSGSGSGRDFTLTISRLEPEDSAVYYCQQYATSPTFGQGTRVEIK |  |  | < 0.001 |
